The values below come from patent US20190134153A1, “IMMUNOMODULATORY EFFECT OF INHALED KINASE INHIBITOR PEPTIDES IN LUNG” (MOERAE MATRIX, INC., priority 2017, published 2019).

Some targets named below: VRK2(h) (Homo sapiens, UniProt Q86Y07); SAPK2a(T106M)(h) (Homo sapiens, UniProt Q16539, T106M); Ret (V804L)(h) (Homo sapiens, UniProt P07949, V804L); Lck(h) activated (Homo sapiens, UniProt P06239); cKit(D816V)(h) (Homo sapiens, UniProt P10721, D816V); PAK2(h) (Homo sapiens, UniProt Q13177); Src(T341M)(h) (Homo sapiens, UniProt P12931, T341M); Met(D1246N)(h) (Homo sapiens, UniProt P08581, D1228N); MST3(h) (Homo sapiens, UniProt Q9Y6E0).

What all share (experiment): Kinase Profiling Assay
What all share (assay type): biochemical
What all share (conditions): 100 μM

For the next experiment, the target named is T1, ULK2(h) (Homo sapiens, UniProt Q8IYT8).
T1 sequence (Q8IYT8 1-1036): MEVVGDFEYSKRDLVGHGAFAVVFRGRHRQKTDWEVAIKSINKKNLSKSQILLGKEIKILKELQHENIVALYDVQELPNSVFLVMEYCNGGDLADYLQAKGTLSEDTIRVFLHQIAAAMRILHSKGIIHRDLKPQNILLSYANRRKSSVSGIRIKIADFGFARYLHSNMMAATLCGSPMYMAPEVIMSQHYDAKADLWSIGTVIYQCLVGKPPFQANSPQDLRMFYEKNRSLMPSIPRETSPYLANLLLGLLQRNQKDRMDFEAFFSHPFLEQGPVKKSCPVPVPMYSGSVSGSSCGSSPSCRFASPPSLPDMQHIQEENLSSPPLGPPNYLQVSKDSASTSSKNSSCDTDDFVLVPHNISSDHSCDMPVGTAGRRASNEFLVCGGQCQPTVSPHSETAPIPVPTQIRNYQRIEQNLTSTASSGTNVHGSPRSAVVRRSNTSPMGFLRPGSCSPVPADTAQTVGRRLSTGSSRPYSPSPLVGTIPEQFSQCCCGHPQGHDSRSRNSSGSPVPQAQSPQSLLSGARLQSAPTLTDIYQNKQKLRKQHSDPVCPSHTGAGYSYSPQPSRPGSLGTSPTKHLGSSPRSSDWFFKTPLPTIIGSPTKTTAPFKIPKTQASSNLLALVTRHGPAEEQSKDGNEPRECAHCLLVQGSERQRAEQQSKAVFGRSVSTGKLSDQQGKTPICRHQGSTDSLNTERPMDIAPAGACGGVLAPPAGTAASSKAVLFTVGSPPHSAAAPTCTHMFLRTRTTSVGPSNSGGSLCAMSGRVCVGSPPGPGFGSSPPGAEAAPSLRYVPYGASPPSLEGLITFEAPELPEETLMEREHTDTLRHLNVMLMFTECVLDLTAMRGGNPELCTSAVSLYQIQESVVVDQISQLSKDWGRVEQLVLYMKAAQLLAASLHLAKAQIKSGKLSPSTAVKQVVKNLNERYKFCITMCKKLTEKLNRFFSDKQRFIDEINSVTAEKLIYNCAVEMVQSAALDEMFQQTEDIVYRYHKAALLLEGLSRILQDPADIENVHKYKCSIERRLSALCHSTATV

The target of the next experiment is T2, TSSK2(h) (Homo sapiens, UniProt Q96PF2).
T2 sequence (Q96PF2 1-358): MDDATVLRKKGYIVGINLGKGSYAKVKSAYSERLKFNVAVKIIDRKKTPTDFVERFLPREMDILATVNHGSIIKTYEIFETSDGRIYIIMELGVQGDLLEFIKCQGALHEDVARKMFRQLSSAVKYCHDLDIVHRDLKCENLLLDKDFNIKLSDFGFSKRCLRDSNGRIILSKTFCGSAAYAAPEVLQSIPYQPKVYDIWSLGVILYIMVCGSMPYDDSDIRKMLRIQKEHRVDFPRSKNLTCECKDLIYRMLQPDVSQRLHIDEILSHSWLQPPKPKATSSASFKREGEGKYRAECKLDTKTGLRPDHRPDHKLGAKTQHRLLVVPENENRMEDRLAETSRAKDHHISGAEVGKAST

The next experiment has as its target T3, PKCι(h) (Homo sapiens, UniProt P41743).
T3 sequence (P41743 1-596): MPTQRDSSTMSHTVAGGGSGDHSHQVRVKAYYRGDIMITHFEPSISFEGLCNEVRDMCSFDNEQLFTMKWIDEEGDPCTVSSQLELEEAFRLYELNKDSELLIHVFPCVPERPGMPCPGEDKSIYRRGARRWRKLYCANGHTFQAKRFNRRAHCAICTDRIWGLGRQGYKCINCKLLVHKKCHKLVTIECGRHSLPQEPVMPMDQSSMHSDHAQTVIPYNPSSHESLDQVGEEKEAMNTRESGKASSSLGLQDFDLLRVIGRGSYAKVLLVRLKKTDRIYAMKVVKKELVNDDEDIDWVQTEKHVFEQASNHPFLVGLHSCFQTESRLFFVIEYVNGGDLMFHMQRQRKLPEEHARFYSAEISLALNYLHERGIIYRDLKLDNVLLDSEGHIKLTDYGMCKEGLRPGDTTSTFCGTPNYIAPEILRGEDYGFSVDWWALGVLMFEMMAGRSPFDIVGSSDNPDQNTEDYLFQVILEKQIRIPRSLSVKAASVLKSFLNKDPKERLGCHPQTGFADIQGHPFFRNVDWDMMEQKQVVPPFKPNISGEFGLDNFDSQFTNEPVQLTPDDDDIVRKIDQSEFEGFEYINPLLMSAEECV

Chain of SAPK2a(T106M)(h) (Q16539 whole entry T106M): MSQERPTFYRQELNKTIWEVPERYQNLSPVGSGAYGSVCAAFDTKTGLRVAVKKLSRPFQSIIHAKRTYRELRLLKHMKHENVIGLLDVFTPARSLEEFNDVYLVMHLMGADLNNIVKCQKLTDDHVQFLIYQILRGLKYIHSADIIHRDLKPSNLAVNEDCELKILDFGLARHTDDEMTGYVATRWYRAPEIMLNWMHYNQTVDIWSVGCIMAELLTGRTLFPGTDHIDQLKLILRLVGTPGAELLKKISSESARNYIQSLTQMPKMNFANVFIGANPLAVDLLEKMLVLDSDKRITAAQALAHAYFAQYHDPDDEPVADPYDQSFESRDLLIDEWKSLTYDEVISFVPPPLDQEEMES
Chain of MST3(h) (Q9Y6E0 whole entry): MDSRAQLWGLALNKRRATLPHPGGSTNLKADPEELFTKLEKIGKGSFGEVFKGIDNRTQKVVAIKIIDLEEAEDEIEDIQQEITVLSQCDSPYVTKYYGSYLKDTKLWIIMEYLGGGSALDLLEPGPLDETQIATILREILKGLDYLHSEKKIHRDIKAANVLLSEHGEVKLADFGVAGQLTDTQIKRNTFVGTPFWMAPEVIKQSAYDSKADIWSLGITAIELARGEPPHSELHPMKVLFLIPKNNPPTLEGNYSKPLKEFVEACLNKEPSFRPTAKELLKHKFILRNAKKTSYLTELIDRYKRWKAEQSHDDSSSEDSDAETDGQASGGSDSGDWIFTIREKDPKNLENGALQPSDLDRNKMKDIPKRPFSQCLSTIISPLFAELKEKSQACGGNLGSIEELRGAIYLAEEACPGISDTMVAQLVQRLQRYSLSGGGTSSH
Chain of PAK2(h) (Q13177 whole entry): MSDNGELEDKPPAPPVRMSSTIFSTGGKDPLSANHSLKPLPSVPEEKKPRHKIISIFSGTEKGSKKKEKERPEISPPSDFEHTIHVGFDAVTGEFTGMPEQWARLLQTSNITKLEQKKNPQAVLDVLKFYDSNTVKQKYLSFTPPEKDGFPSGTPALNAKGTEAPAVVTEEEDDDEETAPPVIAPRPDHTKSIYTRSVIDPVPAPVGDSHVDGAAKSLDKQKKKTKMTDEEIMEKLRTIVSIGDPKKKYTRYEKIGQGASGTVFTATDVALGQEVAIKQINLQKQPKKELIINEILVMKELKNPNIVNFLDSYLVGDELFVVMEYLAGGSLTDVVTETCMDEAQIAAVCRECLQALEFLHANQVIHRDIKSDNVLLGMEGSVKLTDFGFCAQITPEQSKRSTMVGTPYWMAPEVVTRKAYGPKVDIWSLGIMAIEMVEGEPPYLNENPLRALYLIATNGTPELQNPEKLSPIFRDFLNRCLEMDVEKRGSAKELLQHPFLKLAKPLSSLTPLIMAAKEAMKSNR
Chain of VRK2(h) (Q86Y07 whole entry): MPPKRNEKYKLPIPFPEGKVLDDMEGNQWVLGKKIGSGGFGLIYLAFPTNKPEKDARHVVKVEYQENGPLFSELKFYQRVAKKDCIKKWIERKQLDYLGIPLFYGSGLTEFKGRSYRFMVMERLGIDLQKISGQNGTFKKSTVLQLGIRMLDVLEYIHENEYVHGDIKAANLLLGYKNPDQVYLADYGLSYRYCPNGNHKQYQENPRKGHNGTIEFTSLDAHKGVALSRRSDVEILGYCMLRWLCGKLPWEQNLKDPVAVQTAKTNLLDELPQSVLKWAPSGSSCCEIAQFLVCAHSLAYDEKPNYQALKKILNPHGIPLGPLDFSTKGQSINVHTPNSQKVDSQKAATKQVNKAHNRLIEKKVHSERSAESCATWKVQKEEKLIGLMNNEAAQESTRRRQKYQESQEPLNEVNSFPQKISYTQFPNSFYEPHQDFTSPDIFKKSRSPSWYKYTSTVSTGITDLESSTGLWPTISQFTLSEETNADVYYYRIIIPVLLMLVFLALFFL
Chain of Lck(h) activated (P06239 whole entry): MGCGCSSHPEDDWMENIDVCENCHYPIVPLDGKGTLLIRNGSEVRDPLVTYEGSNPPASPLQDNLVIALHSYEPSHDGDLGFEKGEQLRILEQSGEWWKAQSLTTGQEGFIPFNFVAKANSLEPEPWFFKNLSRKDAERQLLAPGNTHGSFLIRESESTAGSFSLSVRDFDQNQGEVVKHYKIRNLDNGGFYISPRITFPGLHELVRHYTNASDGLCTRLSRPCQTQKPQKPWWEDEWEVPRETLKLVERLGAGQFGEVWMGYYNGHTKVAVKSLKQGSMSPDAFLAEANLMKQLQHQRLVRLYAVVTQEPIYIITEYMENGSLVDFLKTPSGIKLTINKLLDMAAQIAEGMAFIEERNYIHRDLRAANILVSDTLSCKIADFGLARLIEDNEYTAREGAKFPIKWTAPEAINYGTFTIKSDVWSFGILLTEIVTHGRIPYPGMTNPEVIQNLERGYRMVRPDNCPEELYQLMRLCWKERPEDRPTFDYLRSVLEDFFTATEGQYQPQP

Regarding FAKLAARLYRKALARQLGVAA [MMI-0300], the “% activity” value is reported as 161% in the experiment with VRK2(h); 97% in the experiment with SAPK2a(T106M)(h); 122% with ULK2(h); 79% with Ret (V804L)(h); 243% with Lck(h) activated; 60% with cKit(D816V)(h). Moreover, the “% activity” value with PAK2(h) was 65%; with Src(T341M)(h), 70%; with Met(D1246N)(h), 82%; in the experiment with TSSK2(h) it was 98%; in the experiment with MST3(h) it was 45%; with PKCι(h), 68%.
In the case of YARAAARQARAKALNRQLGVA [MMI-0200], the “% activity” value with SAPK2a(T106M)(h) is recorded as 100%; in the experiment with ULK2(h), 132%; with Ret (V804L)(h) it was 100%; with Lck(h) activated it was 90%; with cKit(D816V)(h), 118%; with PAK2(h), 69%. Besides, the “% activity” value was determined as 56% with Src(T341M)(h); 149% with Met(D1246N)(h); 91% with TSSK2(h); 95% with MST3(h); 97% with PKCι(h).
For KAFAKLAARLYRKALARQLGVAA [MMI-0400], the “% activity” value with VRK2(h) is on record as 185%; in the experiment with SAPK2a(T106M)(h), 99%; with ULK2(h), 131%; in the experiment with Ret (V804L)(h) it was 73%; with Lck(h) activated, 216%; in the experiment with cKit(D816V)(h), 35%. Moreover, the “% activity” value in the experiment with PAK2(h) came out at 59%; in the experiment with Src(T341M)(h) it was 76%; in the experiment with Met(D1246N)(h), 31%; with TSSK2(h) it was 94%; with MST3(h) it was 36%; with PKCι(h), 46%.
As for HRRIKAWLKKIKALARQLGVAA [MMI-0500], the “% activity” value turned out to be 169% with VRK2(h); 32% with SAPK2a(T106M)(h); 124% with ULK2(h); 20% with Ret (V804L)(h); 76% with Lck(h) activated; 30% with cKit(D816V)(h). For the same sequence, the “% activity” value in the experiment with PAK2(h) stood at 44%; with Src(T341M)(h) it was 59%; with Met(D1246N)(h), 90%; with TSSK2(h), 92%; with MST3(h), 4%; with PKCι(h), 7%.
